Test results published in patent US20190083587A1 (Novo Nordisk, published 2019).
The star is where a group is joined. Biotin = O=C1N[C@H]2[C@H](CS[C@H]2CCCCC(=O)*)N1; AEEA = NCCOCCOCC(=O)O

Columns and labels:
[1] = molecular target: T1, hTLT-1.126-162 (human); assay: told in the HX-MS example; method not given
T1 construct: Made by solid phase peptide synthesis; not glycosylated; also called TLT-1 stalk peptide; chain P
T1 peptide: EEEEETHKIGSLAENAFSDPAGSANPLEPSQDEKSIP

[2] = molecular target: T2, hTLT-1 ECD-His (human, UniProt Q86YW5 16-162); assay: SPR Biacore, mAb captured via human Fc mAb, TLT-1 as analyte
T2 construct: Extracellular domain of human TLT-1 with C-terminal His-6 tag; the range 16-168 is computed from these; also called TLT-1-His; His tagged human TLT1
T2 sequence: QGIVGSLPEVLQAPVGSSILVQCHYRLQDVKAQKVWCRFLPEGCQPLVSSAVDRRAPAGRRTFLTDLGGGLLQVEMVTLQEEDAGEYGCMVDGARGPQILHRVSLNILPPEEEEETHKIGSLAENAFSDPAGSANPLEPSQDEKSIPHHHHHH
Protocol: Method: The mAbs of interest were either immobilized directly to a CM5 chip or by capture via a human Fc capture mAb immobilized to a CM5 chip, while TLT-1-His was immobilized by capture via an anti-His mAb CM5 chip for analysis of Fabs.
mAb direct capture: The TLT-1 mAbs were immobilised to a level of approx 500-1000 RU on a CM5 chip (50 μg/ml diluted in Na-acetate, pH 4.0) using the standard procedure recommended by the supplier. Two-fold dilutions of TLT-1 from 200 nM to 0.2 nM were tested for binding to the mAbs. Running and dilution buffer: 10 mM HEPES, 150 mM, 0.005% p20, pH 7.4. Regeneration was obtained by 10 mM Glycine, pH 1.7. mAb capture via human Fc mAb: Human Fc mAb was immobilised to approx 10.000 RU. The mAb of interest was added (approx 100 nM). Two-fold dilutions of TLT-1 from 200 nM to 0.2 nM were tested. Running and dilution buffer: 10 mM HEPES, 150 mM, 0.005% p20, pH 7.4. Regeneration was obtained in 3 M MgCl₂.

[3] = molecular target: T3, biotinylated 20 mer peptide 5 from stalk region of TLT-1 (N-terminal bio-Oeg (biotin, 8-amino-3,6-dioxaoctanoic acid spacer)); assay: peptide-walking ELISA on streptavidin plate, triple determination
T3 construct: also called A 5
T3 peptide: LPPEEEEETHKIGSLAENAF
Protocol: (§1) The peptide walking ELISA defined the minimal binding region of the peptide. This was established by coating biotinylated peptides with one residue frameshift in the stalk region of TLT-1 in streptavidin plates followed by binding of the antibody of interest (mAb0061). A secondary antibody was added for detection and binding was measured at 450 nm. Positive control: binding to biotinylated TLT-1.

[4] = molecular target: T4, biotinylated 20 mer peptide 6 from stalk region of TLT-1 (N-terminal bio-Oeg (biotin, 8-amino-3,6-dioxaoctanoic acid spacer)); assay: as above
T4 construct: also called A 6
T4 peptide: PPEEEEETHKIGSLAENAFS
Protocol: as §1

[5] = molecular target: T5, biotinylated 20 mer peptide 7 from stalk region of TLT-1 (N-terminal bio-Oeg (biotin, 8-amino-3,6-dioxaoctanoic acid spacer)); assay: as above
T5 construct: also called A 7
T5 peptide: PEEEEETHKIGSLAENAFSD
Protocol: as §1

[6] = molecular target: T6, biotinylated 20 mer peptide 8 from stalk region of TLT-1 (N-terminal bio-Oeg (biotin, 8-amino-3,6-dioxaoctanoic acid spacer)); assay: as above
T6 construct: also called A 8
T6 peptide: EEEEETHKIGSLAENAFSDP
Protocol: as §1

[7] = molecular target: T7, biotinylated 20 mer peptide 9 from stalk region of TLT-1 (N-terminal bio-Oeg (biotin, 8-amino-3,6-dioxaoctanoic acid spacer)); assay: as above
T7 construct: also called A 9
T7 peptide: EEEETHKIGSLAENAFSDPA
Protocol: as §1

[8] = molecular target: T8, biotinylated 20 mer peptide 10 from stalk region of TLT-1 (N-terminal bio-Oeg (biotin, 8-amino-3,6-dioxaoctanoic acid spacer)); assay: as above
T8 construct: also called A10
T8 peptide: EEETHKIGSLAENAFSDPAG
Protocol: as §1

[9] = molecular target: T9, biotinylated 20 mer peptide 11 from stalk region of TLT-1 (N-terminal bio-Oeg (biotin, 8-amino-3,6-dioxaoctanoic acid spacer)); assay: as above
T9 construct: also called A11
T9 peptide: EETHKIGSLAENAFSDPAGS
Protocol: as §1

[10] = molecular target: T10, biotinylated 20 mer peptide 12 from stalk region of TLT-1 (N-terminal bio-Oeg (biotin, 8-amino-3,6-dioxaoctanoic acid spacer)); assay: as above
T10 construct: also called A12
T10 peptide: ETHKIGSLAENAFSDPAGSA
Protocol: as §1

[11] = molecular target: T11, biotinylated 20 mer peptide 13 from stalk region of TLT-1 (N-terminal bio-Oeg (biotin, 8-amino-3,6-dioxaoctanoic acid spacer)); assay: as above
T11 construct: also called B 1
T11 peptide: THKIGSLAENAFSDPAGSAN
Protocol: as §1

[12] = molecular target: T12, biotinylated 20 mer peptide 14 from stalk region of TLT-1 (N-terminal bio-Oeg (biotin, 8-amino-3,6-dioxaoctanoic acid spacer)); assay: as above
T12 construct: also called B 2
T12 peptide: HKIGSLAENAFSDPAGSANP
Protocol: as §1

[13] = molecular target: T13, biotinylated 20 mer peptide 15 from stalk region of TLT-1 (N-terminal bio-Oeg (biotin, 8-amino-3,6-dioxaoctanoic acid spacer)); assay: as above
T13 construct: also called B 3
T13 peptide: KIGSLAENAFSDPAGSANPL
Protocol: as §1

[14] = molecular target: T14, biotinylated 20 mer peptide 16 from stalk region of TLT-1 (N-terminal bio-Oeg (biotin, 8-amino-3,6-dioxaoctanoic acid spacer)); assay: as above
T14 construct: also called B 4
T14 peptide: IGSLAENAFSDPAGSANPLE
Protocol: as §1

[15] = molecular target: T15, biotinylated 16 mer peptide 36 from the stalk region of hTLT-1 (SMILES …); assay: as above
T15 construct: also called C12
T15 peptide: {Biotin-AEEA}-EEEETHKIGSLAENAF-NH2
Protocol: as §1

[16] = molecular target: T16, biotinylated 16 mer peptide 37 from the stalk region of hTLT-1 (SMILES …); assay: as above
T16 peptide: {Biotin-AEEA}-EEETHKIGSLAENAFS-NH2
Protocol: as §1

[17] = molecular target: T17, biotinylated 16 mer peptide 38 from the stalk region of hTLT-1 (SMILES …); assay: as above
T17 construct: also called D 2
T17 peptide: {Biotin-AEEA}-EETHKIGSLAENAFSD-NH2
Protocol: as §1

[18] = molecular target: T18, biotinylated 16 mer peptide 39 from the stalk region of hTLT-1 (SMILES …); assay: as above
T18 construct: also called D 3
T18 peptide: {Biotin-AEEA}-ETHKIGSLAENAFSDP-NH2
Protocol: as §1

[19] = molecular target: T19, biotinylated 16 mer peptide 40 from the stalk region of hTLT-1 (SMILES …); assay: as above
T19 construct: also called D 4
T19 peptide: {Biotin-AEEA}-THKIGSLAENAFSDPA-NH2
Protocol: as §1

[20] = molecular target: T20, biotinylated 16 mer peptide 41 from the stalk region of hTLT-1 (SMILES …); assay: as above
T20 construct: also called D 5
T20 peptide: {Biotin-AEEA}-HKIGSLAENAFSDPAG-NH2
Protocol: as §1

[21] = molecular target: T21, biotinylated 16 mer peptide 42 from the stalk region of hTLT-1 (SMILES …); assay: as above
T21 construct: also called D 6
T21 peptide: {Biotin-AEEA}-KIGSLAENAFSDPAGS-NH2
Protocol: as §1

binding result [1]: binds
Kd [2]: 3.75 nM
koff [2]: 0.0035 s⁻¹
kon [2]: 932000 M⁻¹ s⁻¹
absorbance at 450 nm [3]: > 3
absorbance at 450 nm [4]: > 3
absorbance at 450 nm [5]: > 3
absorbance at 450 nm [6]: > 3
absorbance at 450 nm [7]: > 3
absorbance at 450 nm [8]: > 3
absorbance at 450 nm [9]: > 3
absorbance at 450 nm [10]: > 3
absorbance at 450 nm [11]: > 3
absorbance at 450 nm [12]: > 3
absorbance at 450 nm [13]: > 3
absorbance at 450 nm [14]: > 3
absorbance at 450 nm [15]: > 3
absorbance at 450 nm [16]: > 3
absorbance at 450 nm [17]: > 3
absorbance at 450 nm [18]: > 3
absorbance at 450 nm [19]: > 3
absorbance at 450 nm [20]: > 3
absorbance at 450 nm [21]: > 3
B1: mAb0061 (antibody, human IgG4 S228P, kappa, V domains shown)
VH: EVKLLESGGGLVQPGGSLKLSCAASGFDFSRYWMTWVRQAPGKGLEWIGEINPDSSTINYNPSLKDKFIISRDNAKNTLYLQMSEVRSEDTALYYCASGVFTSWGQGTLVTVSA
VL: DVVMTQTPLSLPVSLGDQASISCRSSQSLVHRNGNTYFHWALQKPGQSPKLLIYKVSNRFSGVPDRFSGSGSGTDFTLKISRVEAEDLGVYFCSQSTHVPYTFGGGTKLEIKR
notes: Mouse VH/VL, human IgG4 / kappa; variant of mAb0012 (HC T60N, LC C36A, Kabat); also called antiTLT-1 0061mab; (0012HC.T60N)2
